Laboratory results taken from paper PMC11443169 (Life Science Alliance, 2024).
Ends that are not written are not given here.

Key:
[1] = Recovery of Aβ variants for elution from reversed-phase HPLC under different conditions; type: physicochemical
From the text: Senile plaques, which are one of the key pathological features of Alzheimer’s disease (AD), are composed of amyloid β peptides (Aβs) with a variety of secondary and tertiary structures because of post-translational modifications ([Saido et al, 1995], [1996]). This heterogeneity appears to affect catabolism and aggregation rates, resulting in structural changes in plaques. […] In contrast, transgenic (Tg) mice overexpressing human APP with pathogenic mutations primarily accumulate Aβ1-40 and Aβ1-42 ([Sturchler-Pierrat et al, 1997]; [Kawarabayashi et al, 2001]). […] There is, however, some discrepancy among different reports regarding the quantity of Aβ variants, which vary depending on the methods employed. […] However, the use of a heated (50°C) basic solvent containing betaine and limited proteolysis using lysyl endopeptidase allows full recovery in HPLC and detection by mass spectrometry, respectively.
Supplementary file : Table S1. Recovery of various Aβ variants for elution from reversed-phase HPLC under different conditions. TFA, trifluoroacetic acid; TEA, triethylamine.

Description for rat hippocampus: (A, B, C, D, E, F) Variants of ^3H/^14C-Aβx-42 were subjected to in vivo degradation and subsequent analysis as previously described ([Iwata et al, 2000]). Briefly, 0.5 μg Aβx-42 peptide dissolved in phosphate-buffered saline was unilaterally injected into the CA1 sector of the rat hippocampus and subjected to catabolism until the animals were euthanized by decapitation at the indicated time points. There was no contamination of the injection area by plasma or cerebrospinal fluid as immunohistochemically confirmed using anti-rat IgG. After extraction, the products were analyzed by reversed-phase HPLC connected to a flow scintillation monitor. The HPLC profiles in a ^14C mode at time 0 (red), 10 (blue), and 30/60 (black) minutes after the in vivo injection are shown. […] The major peaks at time 0 indicated by the arrows correspond to the intact substrates.
Digitized data of remaining amounts of intact Aβx-42 shown in Fig 1 were plotted, and then exponential approximation curves were drawn using Microsoft Excel. Each analysis of the in vivo catabolic rate of the Aβx-42 variant was carried out by independent experiments with more than five time points.
Male, 8–10-wk-old, Sprague Dawley rats used for in vivo analysis of metabolic rates of radiolabeled Aβx-42 peptides were obtained from Japan SLC. […] They were housed in plastic cages. […]

Substance | Recovery for elution from reversed phase HPLC ([1]; solvent TEA/betaine (basic), temperature 50℃) [%] | Recovery for elution from reversed phase HPLC ([1]; solvent TFA, temperature 20℃) [%] | Recovery for elution from reversed phase HPLC ([1]; solvent TFA, temperature 50℃) [%] | Half-life (in vivo half-lives of Aβx-42) (rat hippocampus) [min]
Aβ1-40: amyloid β peptide 1-40 | 100 | 100 | 100 | 
Aβ17L-42: Aβ17L-42 (p3 fragment), internally radiolabeled (LVFFAEDVGSNKGAIIGLMVGGVVIA; also: internally radiolabeled, site not given here; UniProt P05067 688-713, looked up, fragment) |  |  |  | 34.69
